For assay [1], the target named is Quenched-fluorescent peptide substrate fluorescein-5(6)-carbonyl-Ala-Glu-Leu-Asn-Gly-Arg-Pro-Ile-Ser-Ile-Ala-Lys(5(6)-TAMRA).
The target of assay [2] is Versican V1-5GAG (truncated V1, residues 21-694) (UniProt P13611).
In assay [3] the target is Biglycan, full length, C-terminal 6x-His (human) (UniProt P21810).
Assay [4] concerns the target Full-length versican V1 (UniProt P13611).
Assay [5] deals with Versican V1-5GAG (truncated V1, residues 21-694) (UniProt P13611). This is another data set of the same source.
The target in assay [6] is Full-length versican V1 (UniProt P13611). The source holds these as a separate data set.

UniProt P21810, sequence (P21810 38-368): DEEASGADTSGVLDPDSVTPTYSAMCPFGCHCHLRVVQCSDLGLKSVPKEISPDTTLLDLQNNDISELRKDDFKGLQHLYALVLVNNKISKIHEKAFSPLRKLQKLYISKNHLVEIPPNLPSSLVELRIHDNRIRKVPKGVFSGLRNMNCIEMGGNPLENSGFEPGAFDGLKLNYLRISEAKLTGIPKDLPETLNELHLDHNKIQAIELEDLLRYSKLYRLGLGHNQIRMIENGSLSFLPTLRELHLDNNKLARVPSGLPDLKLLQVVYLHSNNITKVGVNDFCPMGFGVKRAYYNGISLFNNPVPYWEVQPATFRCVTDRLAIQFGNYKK

Regarding “ADAMTS1 variant MDTC (truncated after the cysteine-rich domain) (domain or fragment)”, the kcat/Km for proteolysis of the QF peptide in assay [1] was found to be 4500 M⁻¹ s⁻¹. Also, in assay [2], the kcat/Km for cleavage of V1-5GAG (50 nM), time course with versikine ELISA stood at 260 M⁻¹ s⁻¹. The same molecule returned a reduction of the 30 kDa biglycan fragment against WT ADAMTS1; variant at 50 nM, 24 h at 37 °C, immunoblot and densitometry in assay [3] of 75 % reduction.

B1: A disintegrin-like and metalloproteinase with thrombospondin type 1 motifs 1 (ADAMTS1), wild type (enzyme)
chain: FVSSHRYVETMLVADQSMAEFHGSGLKHYLLTLFSVAARLYKHPSIRNSVSLVVVKILVIHDEQKGPEVTSNAALTLRNFCNWQKQHNPPSDRDAEHYDTAILFTRQDLCGSQTCDTLGMADVGTVCDPSRSCSVIEDDGLQAAFTTAHELGHVFNMPHDDAKQCASLNGVNQDSHMMASMLSNLDHSQPWSPCSAYMITSFLDNGHGECLMDKPQNPIQLPGDLPGTSYDANRQCQFTFGEDSKHCPDAASTCSTLWCTGTSGGVLVCQTKHFPWADGTSCGEGKWCINGKCVNKTDRKHFDTPFHGSWGMWGPWGDCSRTCGGGVQYTMRECDNPVPKNGGKYCEGKRVRYRSCNLEDCPDNNGKTFREEQCEAHNEFSKASFGSGPAVEWIPKYAGVSPKDRCKLICQAKGIGYFFVLQPKVVDGTPCSPDSTSVCVQGQCVKAGCDRIIDSKKKFDKCGVCGGNGSTCKKISGSVTSAKPGYHDIITIPTGATNIEVKQRNQRGSRNNGSFLAIKAADGTYILNGDYTLSTLEQDIMYKGVVLRYSGSSAALERIRSFSPLKEPLTIQVLTVGNALRPKIKYTYFVKKKKESFNAIPTFSAWVIEEWGECSKSCELGWQRRLVECRDINGQPASECAKEVKPASTRPCADHPCPQWQLGEWSSCSKTCGKGYKKRSLKCLSHDGGVLSHESCDPLKKPKHFIDFCTMAECS
For B1, the kcat/Km for proteolysis of the QF peptide in assay [1] amounted to 4200 M⁻¹ s⁻¹. Moreover, the kcat/Km for cleavage of V1 (50 nM) at Glu441-Ala442, time course with versikine ELISA, no cofactor in assay [4] is 3400 M⁻¹ s⁻¹. Moreover, the kcat/Km for cleavage of V1-5GAG (50 nM) at Glu441-Ala442, time course with versikine ELISA in assay [5] is 4200 M⁻¹ s⁻¹. For the same molecule, the kcat/Km for cleavage of FL versican, as told in the discussion and the abstract in assay [6] was determined as 3600 M⁻¹ s⁻¹.
